This data set relates to ATP. Description: switch fluorescence ratio, 500 uM ATP over buffer (Cy3 cluster intensity, sum of 5 cycles each) (fold (ratio)); higher = stronger signal-on switching upon ATP binding; sequences stand for … in TCGTCGGCAGCGTCAGATGTGTATAAGAGACAGTTTTTTTTTTTTTTTTTTTTTTTTT…TC. To be noted: aptamer strand: ATP DNA aptamer (quencher-CACCTGGGGGAGTATTGCGGAGGAAGG + anchor), 100 nM annealed; ATP concentration: 500 uM. The gist of the method: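 After annealing to 100 nM quencher-labelled ATP aptamer, Cy3-labelled switching-strand clusters on a modified Illumina MiSeq flow-cell were imaged in selection buffer. A second image followed after 15 min with 500 uM ATP at 22 °C, and five such buffer/ATP cycles were done, each separated by NaOH stripping and re-annealing. The fluorescence ratio, averaged per switch-domain sequence, is summed target-cycle over summed buffer-cycle Cy3 intensity per cluster, with clusters outside 100-1000 RFU excluded.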

± gives the standard deviation of the averaged measurements.
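Also: ATP exposure 15 min at 22 °C before imaging.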

For TCTTGGTTTT, the switch fluorescence ratio worked out at 1.02 ± 0.044.

With TCTTGTCGGT, the switch fluorescence ratio is 1 ± 0.034.

In the case of TCTTTAAGGT, the switch fluorescence ratio was 1.04 ± 0.023.

TCTTTACAGT: the switch fluorescence ratio was determined as 1.05 ± 0.032.

Take TCTTTCGGTG: the switch fluorescence ratio was found to be 1.02 ± 0.04.

On to TCTTTGATTT, for which the switch fluorescence ratio amounted to 1 ± 0.048.

For TCTTTGCGCC, the switch fluorescence ratio amounted to 1.06 ± 0.019.

Consider TCTTTTAAGT, for which the switch fluorescence ratio was 0.97 ± 0.033.

In the case of TCTTTTAATT, the switch fluorescence ratio amounted to 1.05 ± 0.07.

Regarding TCTTTTATGG, the switch fluorescence ratio was 1.04 ± 0.093.

Consider TCTTTTCAGC, for which the switch fluorescence ratio came to 0.992 ± 0.045.

On to TCTTTTGGAG, for which the switch fluorescence ratio turned out to be 0.996 ± 0.045.

TCTTTTGGTA: the switch fluorescence ratio is 0.9895 ± 0.0052.

As for TCTTTTTTCC, the switch fluorescence ratio stood at 1.1 ± 0.1.

For the sequence TGAAAAAAAC, the switch fluorescence ratio came out at 0.9871 ± 0.0072.

With TGAAAAAAGA, the switch fluorescence ratio came out at 0.988 ± 0.019.

For TGAAAAAGTG, the switch fluorescence ratio is 0.9941 ± 0.0077.

In the case of TGAAAAATGG, the switch fluorescence ratio was found to be 1.01 ± 0.031.

For TGAAAAATTT, the switch fluorescence ratio came out at 0.988 ± 0.025.

As for TGAAAACGGT, the switch fluorescence ratio came to 1 ± 0.035.

On to TGAAAAGTTG, for which the switch fluorescence ratio amounted to 0.987 ± 0.1.

With TGAAAATAGG, the switch fluorescence ratio was 0.9771 ± 0.0068.

As for TGAAAATGGT, the switch fluorescence ratio was 0.996 ± 0.015.

With TGAAACACCG, the switch fluorescence ratio is 1.46 ± 0.66.

As to TGAAACATTT, the switch fluorescence ratio turned out to be 0.975 ± 0.036.

As for TGAAACGTAT, the switch fluorescence ratio was 0.993 ± 0.023.

For the sequence TGAAAGATTT, the switch fluorescence ratio turned out to be 1 ± 0.03.

Take TGAAAGCCAC: the switch fluorescence ratio is 1.1 ± 0.024.

Turning to TGAAAGGGGA, the switch fluorescence ratio stood at 1.03 ± 0.054.

TGAAATCATA: the switch fluorescence ratio was determined as 0.996 ± 0.037.

As for TGAAATTCTT, the switch fluorescence ratio came to 1.012 ± 0.0094.

Regarding TGAACATTTT, the switch fluorescence ratio is 1.07 ± 0.079.

Regarding TGAACGGTTC, the switch fluorescence ratio amounted to 1.02 ± 0.021.

Take TGAACTCGGG: the switch fluorescence ratio was 0.989 ± 0.017.

As for TGAACTCTAG, the switch fluorescence ratio stood at 1.02 ± 0.059.

Regarding TGAACTTGCT, the switch fluorescence ratio was 1.02 ± 0.074.

Take TGAAGAATGT: the switch fluorescence ratio was 1.02 ± 0.017.

With TGAAGACATT, the switch fluorescence ratio stood at 1.02 ± 0.04.

In the case of TGAAGACCAT, the switch fluorescence ratio was 1.016 ± 0.0058.

Turning to TGAAGAGGAT, the switch fluorescence ratio turned out to be 1.09 ± 0.15.

For the sequence TGAAGATCGC, the switch fluorescence ratio stood at 1.02 ± 0.018.

Turning to TGAAGCATTG, the switch fluorescence ratio stood at 1.35 ± 0.38.

For the sequence TGAAGGATGG, the switch fluorescence ratio worked out at 1 ± 0.027.

As for TGAAGGCAGG, the switch fluorescence ratio was 1.01 ± 0.072.

With TGAAGGCCTT, the switch fluorescence ratio is 0.9953 ± 0.0011.

TGAAGGGAAA: the switch fluorescence ratio was found to be 1 ± 0.051.

As to TGAAGGGGAG, the switch fluorescence ratio is 1.01 ± 0.069.

As for TGAAGGGGGG, the switch fluorescence ratio amounted to 0.984 ± 0.034.

TGAAGGGTGC: the switch fluorescence ratio was determined as 1.02 ± 0.054.

On to TGAAGGTCGT, for which the switch fluorescence ratio turned out to be 0.99 ± 0.029.

Take TGAAGGTTGG: the switch fluorescence ratio is 1.02 ± 0.025.

On to TGAAGTCG, for which the switch fluorescence ratio was 0.999 ± 0.027.

For the sequence TGAAGTGGGG, the switch fluorescence ratio amounted to 0.954 ± 0.016.

Take TGAAGTTTAC: the switch fluorescence ratio amounted to 2.03 ± 1.4.

As for TGAAGTTTGC, the switch fluorescence ratio is 0.999 ± 0.01.

For the sequence TGAAGTTTTT, the switch fluorescence ratio was found to be 1.02 ± 0.064.

On to TGAATACGGG, for which the switch fluorescence ratio was found to be 1.006 ± 0.004.

For the sequence TGAATCAATT, the switch fluorescence ratio worked out at 1.06 ± 0.026.

On to TGAATCAGG, for which the switch fluorescence ratio turned out to be 1.01 ± 0.073.

In the case of TGAATCCTCG, the switch fluorescence ratio came to 1.05 ± 0.012.

With TGAATGCTGA, the switch fluorescence ratio is 0.961 ± 0.017.

As to TGAATGGTTT, the switch fluorescence ratio worked out at 0.997 ± 0.031.

TGAATGTAGC: the switch fluorescence ratio came out at 0.9781 ± 0.0024.

For TGAATTTGGG, the switch fluorescence ratio is 0.997 ± 0.064.

Turning to TGACAATCCT, the switch fluorescence ratio was determined as 1.05 ± 0.016.

On to TGACAGTTAT, for which the switch fluorescence ratio turned out to be 1.06 ± 0.038.

As for TGACCCGTAC, the switch fluorescence ratio stood at 2.64 ± 1.7.

TGACCGCTTT: the switch fluorescence ratio turned out to be 1.12 ± 0.029.

Turning to TGACCGTAGA, the switch fluorescence ratio is 1.03 ± 0.028.

On to TGACCTCTTA, for which the switch fluorescence ratio came to 0.992 ± 0.024.

On to TGACGGGCAG, for which the switch fluorescence ratio is 1.07 ± 0.015.

As to TGACGGGGTA, the switch fluorescence ratio worked out at 1.04 ± 0.12.

Regarding TGACGGGTTA, the switch fluorescence ratio amounted to 1.02 ± 0.022.

In the case of TGACTATT, the switch fluorescence ratio was determined as 0.9948 ± 0.004.

Regarding TGACTCGGGC, the switch fluorescence ratio worked out at 0.993 ± 0.022.

Consider TGACTGGGTT, for which the switch fluorescence ratio stood at 1.02 ± 0.047.

With TGACTTGGGT, the switch fluorescence ratio was determined as 0.991 ± 0.01.

With TGACTTTCGC, the switch fluorescence ratio turned out to be 1.06 ± 0.028.

As to TGACTTTTTA, the switch fluorescence ratio turned out to be 0.9933 ± 0.0075.

On to TGAGAAATGG, for which the switch fluorescence ratio was determined as 1.02 ± 0.036.

Turning to TGAGAAGGAA, the switch fluorescence ratio came to 1.033 ± 0.0093.

Turning to TGAGACATGC, the switch fluorescence ratio worked out at 0.994 ± 0.038.

Turning to TGAGACTGGG, the switch fluorescence ratio was determined as 0.993 ± 0.02.

On to TGAGACTGGT, for which the switch fluorescence ratio came out at 0.999 ± 0.023.

In the case of TGAGAGCTGA, the switch fluorescence ratio came to 0.9825 ± 0.0063.

For the sequence TGAGAGCTGG, the switch fluorescence ratio stood at 0.98517 ± 0.00094.

In the case of TGAGAGGGTG, the switch fluorescence ratio is 1.04 ± 0.041.

In the case of TGAGAGGTTA, the switch fluorescence ratio stood at 1.04 ± 0.013.

As for TGAGATAGAG, the switch fluorescence ratio was 0.975 ± 0.018.

Consider TGAGATTAGT, for which the switch fluorescence ratio came to 1.01 ± 0.026.

TGAGCACAGG: the switch fluorescence ratio was determined as 1.455 ± 0.0091.

Regarding TGAGCCGCGG, the switch fluorescence ratio was 1.004 ± 0.0095.

As to TGAGCTGGTA, the switch fluorescence ratio is 0.981 ± 0.034.

TGAGCTTAGA: the switch fluorescence ratio amounted to 1.02 ± 0.054.

TGAGGAAAAG: the switch fluorescence ratio is 1.006 ± 0.0065.

Regarding TGAGGAAAGG, the switch fluorescence ratio stood at 1.17 ± 0.25.

TGAGGAAGGC: the switch fluorescence ratio turned out to be 0.992 ± 0.039.

For TGAGGACAGT, the switch fluorescence ratio is 1 ± 0.018.

With TGAGGCACGG, the switch fluorescence ratio came out at 1.05 ± 0.056.

As for TGAGGCAGAG, the switch fluorescence ratio came to 1.06 ± 0.015.

TGAGGGCGAA: the switch fluorescence ratio was determined as 0.984 ± 0.01.

In the case of TGAGGGGAAG, the switch fluorescence ratio is 0.986 ± 0.021.

Regarding TGAGGGGAAT, the switch fluorescence ratio came out at 1 ± 0.012.

As to TGAGGGGCGG, the switch fluorescence ratio turned out to be 0.998 ± 0.039.

Consider TGAGGGGCTT, for which the switch fluorescence ratio amounted to 1 ± 0.073.

Consider TGAGGGGGGG, for which the switch fluorescence ratio was determined as 0.999 ± 0.034.

TGAGGGGT: the switch fluorescence ratio stood at 0.958 ± 0.027.

TGAGGGGTTT: the switch fluorescence ratio stood at 0.992 ± 0.015.

Consider TGAGGGTCGG, for which the switch fluorescence ratio amounted to 0.972 ± 0.041.

For the sequence TGAGGTACGG, the switch fluorescence ratio was 1.01 ± 0.029.

As to TGAGGTAGCG, the switch fluorescence ratio worked out at 0.981 ± 0.034.

On to TGAGGTGTTT, for which the switch fluorescence ratio came out at 0.992 ± 0.023.

Regarding TGAGGTTAGT, the switch fluorescence ratio amounted to 1.09 ± 0.19.

Take TGAGGTTGAG: the switch fluorescence ratio was found to be 1.03 ± 0.059.

In the case of TGAGTAAAGC, the switch fluorescence ratio was 1.03 ± 0.062.

With TGAGTACTGA, the switch fluorescence ratio was 1.02 ± 0.024.

Take TGAGTAGATA: the switch fluorescence ratio worked out at 1.01 ± 0.018.

For TGAGTATAGG, the switch fluorescence ratio was 1.009 ± 0.003.

For TGAGTATTTA, the switch fluorescence ratio is 0.993 ± 0.057.

TGAGTCACCT: the switch fluorescence ratio was 1.16 ± 0.037.
